Experimental data: US11433139B2, “Peptide vaccines against interleukin-31” (Zoetis Services LLC, priority 2018, dated 2022)
Entries after “also recorded” stand apart in the source; their conditions may differ. Where no end group is shown, it is not given here. The star is where a group is joined. Biotin = O=C1N[C@H]2[C@H](CS[C@H]2CCCCC(=O)*)N1

Legend:
[1] = tested on: mouse anti equine IL-31 serum; assay: Bio-layer interferometry binding of mouse serum to immobilized equine IL-31 mimotopes
From the text: Mice were immunized with full length equine IL-31 (SEQ ID NO: 165; Equine_IL-31), the corresponding nucleotide sequence for which is (SEQ ID NO: 166; […]) conjugated to CRM-197 like the method described in section 1.6 of this application. Biotin conjugated peptides representing three epitope regions described herein were designed for use with a bio-layer interferometry binding assay (Octet, ForteBio). Description of these peptides are described in FIG. 21A. Each peptide contains an N terminal biotin with a three-amino acid spacer sequence (GSG) annotated with bold underlined text in the figure. The 15H05 mimotope includes two terminal cysteine residues (also highlighted in bold and underlined) to facilitate cyclization by a disulphide bond. […] Control mouse serum was from a mouse vaccinated with an unrelated protein. The response, described here as the amplitude of the signal following 120 seconds of antiserum association, is represented on the y axis of the figure. […] In addition, the ability of these IL-31 mimotopes to be recognized by those immune responses can be assessed through binding. […] Like presentation of mimotopes described herein which elicit immune responses to full length protein, this experiment describes a reciprocal validation of these epitopes where the immune response is validated from the protein against the mimotope.

[2] = target: feline IL-31; assay: Affinity of anti-IL-31 antibodies by surface plasmon resonance (Biacore), feline IL-31 surface; assay type: binding; conditions: IL-31 conjugated to the surface (FIG. 2)
Procedure, shortened: (§1)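 IL-31 amine-coupled (NHS/EDC) at 5 μg/mL directly onto the SPR chip, quenched with ethanolamine; candidate mAbs flowed over as analyte. KD from 1:1 model fits; values below 1×10^−11 M are under the instrument's lower quantitation limit.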
Target sequence in this assay (as listed by the source): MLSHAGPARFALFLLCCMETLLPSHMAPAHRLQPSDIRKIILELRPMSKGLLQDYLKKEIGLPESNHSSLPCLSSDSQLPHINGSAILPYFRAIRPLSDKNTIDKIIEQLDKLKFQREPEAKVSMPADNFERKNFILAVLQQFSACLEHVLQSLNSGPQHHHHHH

[3] = target: canine IL-31; assay: Affinity of anti-IL-31 antibodies by surface plasmon resonance (Biacore), canine IL-31 surface; assay type: binding; conditions: IL-31 conjugated to the surface (FIG. 2)
Chain of canine IL-31 (as listed by the source): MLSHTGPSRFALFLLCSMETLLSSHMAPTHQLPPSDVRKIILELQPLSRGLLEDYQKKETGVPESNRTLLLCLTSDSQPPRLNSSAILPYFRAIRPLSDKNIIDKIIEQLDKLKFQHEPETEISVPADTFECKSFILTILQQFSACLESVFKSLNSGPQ
Procedure, shortened: as §1

[4] = tested on: feline IL-31; assay: Inhibition of feline IL-31 induced pSTAT3 signaling in feline FCWF4 macrophage-like cells; assay type: cell-based; conditions: 0.2 μg/mL feline IL-31, pSTAT3, FCWF4 cells (FIG. 3)
Procedure: (§2) To identify candidates with inhibitory activity, antibodies were assessed for their ability to affect IL-31-mediated STAT3 phosphorylation in either a canine or feline cell-based assay. STAT3 phosphorylation was determined in canine DH-82 (ATCC® CRL-10389™) or feline FCWF4 macrophage-like cells (ATCC CRL-2787). DH82 and FCWF4 cells were primed with canine interferon gamma (R&D Systems, Minneapolis, Minn.) at 10 ng/mL for 24 hours or feline interferon gamma (R&D Systems, Minneapolis, Minn.) at 125 ng/mL for 96 hours, respectively, to increase receptor expression. Both cell types were serum starved for 2 hours prior to IL-31 and mAb treatment. Using two independent methods, all candidate mAbs were evaluated for their ability to inhibit either 1 μg/mL canine or 0.2 μg/mL feline IL-31 induced STAT3 phosphorylation. […] To ensure complex formation, a one hour co-incubation of mAb and IL-31 cytokine prior to cell stimulation was completed. IL-31 cell stimulation was carried out for five minutes. STAT3 phosphorylation was measured using AlphaLISA SureFire ULTRA™ technology (Perkin Elmer, Waltham, Mass.). In the case where antibody concentration and purity are unknown, hybridoma supernatants were qualitatively measured for their ability to inhibit STAT3 phosphorylation following a 1 hour co-incubation with […] IL-31. The potency of individual monoclonal antibodies defined by their ability to inhibit IL-31 mediated STAT3 phosphorylation in these assays was considered the key selection criteria for further advancement of select antibodies. The term potency refers to the IC50 value calculated from these assays and is the concentration of the antibody where signaling induced by IL-31 is reduced to one half its maximal value.

[5] = tested on: feline IL-31; assay: Inhibition of feline IL-31 induced pSTAT3 signaling in canine DH-82 cells; assay type: cell-based; conditions: feline IL-31, pSTAT3, canine DH82 cells (FIG. 3)
Procedure: as §2
Target sequence in this assay (as listed by the source): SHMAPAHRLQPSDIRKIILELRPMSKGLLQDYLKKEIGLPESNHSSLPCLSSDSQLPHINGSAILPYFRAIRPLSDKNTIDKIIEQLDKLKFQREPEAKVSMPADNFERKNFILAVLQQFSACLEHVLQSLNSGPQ

[6] = tested on: wildtype feline IL-31; assay: Indirect ELISA, binding to wildtype feline IL-31
Procedure: (§3) Mice and dogs were immunized with recombinant canine IL-31 (SEQ ID No. 155) for the purpose of identifying antibodies. Serum antibody titers from immunized animals were determined using an enzyme linked immunosorbent assay (ELISA). Canine or feline IL-31 (50 ng/well) was immobilized to polystyrene microplates and used as a capture antigen. Serum from immunized animals was diluted in phosphate buffered saline with 0.05% tween-20 (PBST). The presence of anti-IL-31 antibodies was detected with an appropriate secondary HRP labeled antibody. Following addition of a chromogenic substrate (SureBlue Reserve TMB 1-Component Microwell Peroxidase Substrate, KPL, Inc., Gaithersburg, Md.) and a ten minute incubation at room temperature (RT) the reaction was stopped with the addition of […] of 0.1 N HCl. The absorbance of each well was determined at an optical density (OD) of 450 nm. Antibodies were selected for their ability to bind canine and feline IL-31 using an ELISA. In some cases, further characterization was performed at the time of selection using an ELISA with a mutant form of the feline IL-31 protein as a capture antigen. Cells producing antibodies with desired binding and inhibitory properties were chosen for sequence analysis of RNA transcripts representing the variable heavy (VH) and variable light (VL) IgG chains.
(§4) For the indirect ELISA method, antibody binding to wildtype and feline IL-31 15H05 mutant proteins was assessed. […] In comparison, the 11E12 antibody bound to the wild-type feline IL-31 and its binding was not impacted by the mutations in the 15H05 epitope region as evidenced by the data in FIG. 4. To confirm binding, biacore analysis was performed using canine, feline, equine, human, feline 15H05 mutant, and feline 11E12 mutant IL-31 proteins as surfaces and a single test concentration of antibody. Similar to ELISA observations, all antibodies tested bound to wildtype feline IL-31. In agreement with the data described above in this section, mouse antibodies 11 E12 and 15H05 both bound to canine and feline IL-31 surfaces. […] From this group of nine fully canine antibodies, only ZIL1 and ZIL9 cross-reacted with equine IL-31. Of note, antibody 15H05 was the only one of all assayed herein that bound to canine, feline, and equine IL-31 indicating some level of epitope conservation across the three species. In contrast, none of the antibodies described herein bound to human IL-31. Additional biacore surfaces were used to verify ELISA observations showing differential binding of antibodies to wildtype feline IL-31 and two proteins with mutations in the 15H05 (15H05 mutant) or 11 E12 (11E12 mutant) epitopes. […] Differing results can be attributed to differences in the two assay methodologies.
(§5) To determine the impact of mAbs 11E12 and 15H05 ability to bind these mutant forms of feline IL-31, an indirect ELISA was run using the mutants directly coated on to an immunoassay plate. […] The minor attenuation of mAb 15H05s binding to the 11E12 mutant is likely due to translational effects of the mutations from movement of the two front helices effecting the 15H05 binding site. The mutations designed to affect mAb 15H05s binding (mutant 15H05) show a complete loss of mAb 1505s ability to bind this IL-31 mutant by ELISA. Unlike the 11E12 mutant, the changes in the random coil recognized by mAb 15H05 (mutant 15H05) had no impact on mAb 11E12 binding further supporting the distinction between the two epitopes (FIG. 6C).

[7] = tested on: feline IL-31 15H05 mutant; assay: Indirect ELISA, binding to feline IL-31 15H05 mutant; conditions: compared with wildtype
Chain of feline IL-31 15H05 mutant (as listed by the source, change not shown): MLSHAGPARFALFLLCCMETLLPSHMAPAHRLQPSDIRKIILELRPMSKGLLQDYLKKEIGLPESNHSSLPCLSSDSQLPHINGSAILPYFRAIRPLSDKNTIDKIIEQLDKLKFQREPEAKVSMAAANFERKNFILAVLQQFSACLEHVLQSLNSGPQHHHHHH
Procedure: as §3, §4, §5

[8] = tested on: feline IL-31 11E12 mutant; assay: Indirect ELISA, binding to feline IL-31 11E12 mutant; conditions: compared with wildtype
Chain of feline IL-31 11E12 mutant (as listed by the source, change not shown): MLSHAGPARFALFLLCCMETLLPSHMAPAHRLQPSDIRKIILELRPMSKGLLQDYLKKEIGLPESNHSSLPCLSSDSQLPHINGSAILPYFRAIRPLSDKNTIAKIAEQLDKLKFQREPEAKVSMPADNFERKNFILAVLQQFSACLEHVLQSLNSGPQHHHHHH
From the text: as §5

[9] = tested on: wildtype feline IL-31; assay: Biacore binding, single test concentration of antibody, feline IL-31 surface
Procedure: (§6) For the indirect ELISA, binding (ELISA OD) to wildtype feline IL-31 and a feline IL-31 15H05 mutant which had mutations in the monoclonal antibody 15H05 epitope region was assessed. To confirm binding, biacore analysis was performed using canine, feline, equine, human, the feline 15H05 mutant, and feline 11E12 mutant IL-31 proteins as surfaces and a single test concentration of antibody. The feline IL-31 11E12 mutant had mutations in the monoclonal antibody 11E12 epitope region.
For the indirect ELISA method, antibody binding to wildtype and feline IL-31 15H05 mutant proteins was assessed. […] In comparison, the 11E12 antibody bound to the wild-type feline IL-31 and its binding was not impacted by the mutations in the 15H05 epitope region as evidenced by the data in FIG. 4. To confirm binding, biacore analysis was performed using canine, feline, equine, human, feline 15H05 mutant, and feline 11E12 mutant IL-31 proteins as surfaces and a single test concentration of antibody. Similar to ELISA observations, all antibodies tested bound to wildtype feline IL-31. In agreement with the data described above in this section, mouse antibodies 11 E12 and 15H05 both bound to canine and feline IL-31 surfaces. […] From this group of nine fully canine antibodies, only ZIL1 and ZIL9 cross-reacted with equine IL-31. […]

[10] = tested on: canine IL-31; assay: Biacore binding, single test concentration of antibody, canine IL-31 surface
Procedure: as §6, §4

[11] = tested on: feline 15H05 mutant IL-31; assay: Biacore binding, single test concentration of antibody, feline 15H05 mutant IL-31 surface
Procedure: as §6, §4

[12] = tested on: feline 11E12 mutant IL-31; assay: Biacore binding, single test concentration of antibody, feline 11E12 mutant IL-31 surface
Procedure: as §6, §4

[13] = tested on: canine IL-31; assay: Competition binding assessment using Biacore, canine IL-31 surface; conditions: sequential addition of 15H05 and 11E12, Biacore
Procedure: (§7) To further characterize the IL-31 epitopes bound by mAbs 15H05 and 11 E12, blocking experiments were performed using biacore where the surface containing the IL-31 protein was generated followed by sequential addition of antibodies. FIGS. 7A and 7B show the relative binding of each antibody to IL-31 following capture of 11E12 or 15H05. The columns labeled HBS-EP (assay buffer) indicate the maximum signal obtained from each antibody binding to the IL-31 surface alone without competition. […] The sensograms related to FIG. 7A show the disassociation kinetics of both antibodies are very slow on this newly formed biacore surface therefore no additional occupation of binding sites can occur with addition of the same antibody (data not shown).

[14] = tested on: feline IL-31; assay: Competition binding assessment using Biacore, feline IL-31 surface; conditions: sequential addition of 15H05 and 11E12, Biacore
Procedure: as §7
Binding of additional antibody in the presence of the same antibody is a result of the increased off rate due to the poorer quality of the surface used. Increased off rates can be seen and compared to the KD values from newly formed feline IL-31 surfaces in FIG. 2.

[15] = tested on: equine IL-31; assay: Biacore binding, single test concentration of antibody, equine IL-31 surface
Chain of equine IL-31 (as listed by the source): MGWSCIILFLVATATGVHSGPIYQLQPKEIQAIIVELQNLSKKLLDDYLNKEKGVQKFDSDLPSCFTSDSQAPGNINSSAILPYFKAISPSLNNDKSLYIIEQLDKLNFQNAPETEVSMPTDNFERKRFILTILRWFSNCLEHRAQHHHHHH
Procedure: as §6, §4

Molecule: A helix: biotin GSG equine IL-31 mimotope N-GPIYQLQPKEIQAIIVELQNLSKK-C (Biotin-GSGGPIYQLQPKEIQAIIVELQNLSKK)
- binding of mouse anti equine IL-31 serum to mimotope ([1]; biotin peptide on streptavidin pins, 120 seconds association): recognized as relevant immunogens
- binding of control mouse serum to mimotope ([1]; serum of a mouse vaccinated with an unrelated protein): some dilution dependent signal

B1: 11E12: mouse-derived anti IL-31 antibody previously described in U.S. Pat. No. 8,790,651; for comparison (antibody, V domains shown)
VH: QVQLQQSGAELVKPGASVKLSCKASGYTFKYYDINWVRQRPEQGLEWIGWIFPGDGGTKYNETFKGKATLTTDKSSSTAYMQLSRLTSEDSAVYFCARGGTSVIRDAMDYWGQGTSVTVSS
VL: DIVLTQSPASLAVSLGQRATISCRASESVDNYGISFMHWYQQKPGQPPKLLIYRASNLESGIPARFSGSGSRTDFTLTINPVETDDVATYYCQQSNKDPLTFGAGTKLELK
- affinity (KD) to feline IL-31 [2]: high affinity
- affinity (KD) to canine IL-31 [3]: high affinity
- potency (IC50) against feline IL-31 in feline FCWF4 cells [4]: comparable
- potency (IC50) against feline IL-31 in canine DH82 cells [5]: comparable
- binding to wildtype feline IL-31 (ELISA) [6]: bound; also recorded: capable of binding
- binding to feline IL-31 15H05 mutant (ELISA) [7]: not impacted; also recorded: no impact
- binding to feline IL-31 11E12 mutant (ELISA) [8]: highly attenuated
- binding to wildtype feline IL-31 (Biacore) [9]: bound
- binding to canine IL-31 (Biacore) [10]: bound
- binding to feline 15H05 mutant IL-31 (Biacore) [11]: bound
- binding to feline 11E12 mutant IL-31 (Biacore) [12]: did not bind
- competition binding on canine IL-31 [13]: capable of binding to canine IL-31 in the presence of one another
- competition binding on feline IL-31 [14]: no overlap in the epitope recognized

B2: ZIL1: fully canine anti IL-31 antibody, VH SEQ ID NO: 75, VL SEQ ID NO: 77 (antibody, listed as Canis familiaris, V domains shown)
VH: EVQLVESGGDLVKPGGSLRLSCVASGFTFSSYGMSWVRQAPGKGLQWVAHINSGGSSTYYADAVKGRFTISRDNAKNTLYLQMNSLRAEDTAVYYCVEVYTTLAAFWTDNFDYWGQGTLVTVSS
VL: QSVLTQPTSVSGSLGQRVTISCSGSTNNIGILAATWYQQLPGKAPKVLVYSDGNRPSGVPDRFSGSKSGNSATLTITGLQAEDEADYYCQSFDTTLDAYVFGSGTQLTVL
- binding to wildtype feline IL-31 (ELISA) [6]: capable of binding; also recorded: retained binding
- binding to feline IL-31 15H05 mutant (ELISA) [7]: binding was impacted; also recorded: decreased
- binding to equine IL-31 (Biacore) [15]: cross-reacted
- binding to feline 15H05 mutant IL-31 (Biacore) [11]: decreased
- binding to feline 11E12 mutant IL-31 (Biacore) [12]: partially effected
